The values that follow are results of earlier work, collected in paper PMC3977038.

This data set deals with FcεRIα (Homo sapiens) (UniProt P12319).
Chain of FcεRIα (Homo sapiens) (P12319 26-257): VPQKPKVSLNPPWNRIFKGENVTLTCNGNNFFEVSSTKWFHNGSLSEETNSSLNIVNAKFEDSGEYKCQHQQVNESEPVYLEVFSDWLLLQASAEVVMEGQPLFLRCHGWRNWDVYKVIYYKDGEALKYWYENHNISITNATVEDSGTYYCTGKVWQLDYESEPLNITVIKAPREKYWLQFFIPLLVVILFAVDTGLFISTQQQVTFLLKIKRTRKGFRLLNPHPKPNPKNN

Chain of IgE-Fc Fc (P01854 105-426): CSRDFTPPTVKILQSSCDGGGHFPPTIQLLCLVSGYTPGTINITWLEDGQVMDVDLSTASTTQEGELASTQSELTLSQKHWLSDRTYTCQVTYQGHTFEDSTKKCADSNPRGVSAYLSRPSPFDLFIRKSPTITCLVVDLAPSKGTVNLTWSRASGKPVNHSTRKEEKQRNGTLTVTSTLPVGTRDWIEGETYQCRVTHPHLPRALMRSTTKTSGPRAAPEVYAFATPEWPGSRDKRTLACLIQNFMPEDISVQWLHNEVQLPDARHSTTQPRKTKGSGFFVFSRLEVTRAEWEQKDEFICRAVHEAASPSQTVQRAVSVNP

The Kd is a measure of binding affinity in units of concentration. Take IgE-Fc Fc (from UniProt P01854): the Kd was 0.1 nM.
